We go through 5 molecules from PMC5589196 (Cell, 2016).

T1: Tfg1 (S. cerevisiae, UniProt P41895 1-735)
T1 sequence (looked up): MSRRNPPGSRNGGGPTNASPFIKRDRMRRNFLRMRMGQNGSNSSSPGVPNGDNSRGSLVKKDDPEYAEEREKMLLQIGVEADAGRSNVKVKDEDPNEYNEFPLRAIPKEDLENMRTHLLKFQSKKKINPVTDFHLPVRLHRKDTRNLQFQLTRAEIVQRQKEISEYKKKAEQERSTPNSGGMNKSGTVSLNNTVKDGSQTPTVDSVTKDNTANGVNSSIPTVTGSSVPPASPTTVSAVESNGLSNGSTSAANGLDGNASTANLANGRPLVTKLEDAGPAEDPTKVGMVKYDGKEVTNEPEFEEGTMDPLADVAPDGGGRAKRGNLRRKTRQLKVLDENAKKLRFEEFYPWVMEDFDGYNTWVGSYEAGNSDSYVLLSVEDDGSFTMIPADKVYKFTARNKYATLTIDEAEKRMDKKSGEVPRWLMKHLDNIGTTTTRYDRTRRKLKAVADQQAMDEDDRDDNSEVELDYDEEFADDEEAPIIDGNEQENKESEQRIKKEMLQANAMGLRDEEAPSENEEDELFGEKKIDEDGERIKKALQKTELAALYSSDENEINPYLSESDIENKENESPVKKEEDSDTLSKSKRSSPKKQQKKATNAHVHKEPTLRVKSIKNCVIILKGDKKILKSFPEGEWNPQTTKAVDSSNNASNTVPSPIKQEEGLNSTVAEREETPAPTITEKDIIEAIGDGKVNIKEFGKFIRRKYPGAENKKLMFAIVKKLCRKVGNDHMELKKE

T2: Rad3 (S. cerevisiae, UniProt P06839 1-778)
T2 sequence (looked up): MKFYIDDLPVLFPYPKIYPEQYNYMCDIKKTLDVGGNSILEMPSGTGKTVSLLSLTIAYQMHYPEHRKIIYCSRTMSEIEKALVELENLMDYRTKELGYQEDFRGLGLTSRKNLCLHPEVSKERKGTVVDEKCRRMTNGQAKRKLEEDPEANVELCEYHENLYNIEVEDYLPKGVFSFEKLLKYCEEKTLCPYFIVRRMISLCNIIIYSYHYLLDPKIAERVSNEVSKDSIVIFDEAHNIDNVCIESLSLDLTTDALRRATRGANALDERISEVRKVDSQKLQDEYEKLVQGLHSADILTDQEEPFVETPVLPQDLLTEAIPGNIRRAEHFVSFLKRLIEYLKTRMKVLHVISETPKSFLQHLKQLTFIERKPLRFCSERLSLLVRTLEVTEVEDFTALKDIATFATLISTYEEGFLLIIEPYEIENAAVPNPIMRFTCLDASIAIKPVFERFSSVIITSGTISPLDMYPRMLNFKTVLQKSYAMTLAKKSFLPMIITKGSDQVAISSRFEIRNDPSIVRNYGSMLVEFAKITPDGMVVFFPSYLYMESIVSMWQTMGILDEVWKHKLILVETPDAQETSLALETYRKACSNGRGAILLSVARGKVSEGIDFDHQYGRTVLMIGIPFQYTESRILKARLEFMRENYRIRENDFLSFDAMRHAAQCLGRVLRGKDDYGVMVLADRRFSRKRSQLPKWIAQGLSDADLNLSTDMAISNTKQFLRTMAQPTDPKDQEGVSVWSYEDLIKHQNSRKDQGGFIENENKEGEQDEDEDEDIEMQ

T3: Med5 (S. cerevisiae, UniProt P53114 1-1132)
T3 sequence (looked up): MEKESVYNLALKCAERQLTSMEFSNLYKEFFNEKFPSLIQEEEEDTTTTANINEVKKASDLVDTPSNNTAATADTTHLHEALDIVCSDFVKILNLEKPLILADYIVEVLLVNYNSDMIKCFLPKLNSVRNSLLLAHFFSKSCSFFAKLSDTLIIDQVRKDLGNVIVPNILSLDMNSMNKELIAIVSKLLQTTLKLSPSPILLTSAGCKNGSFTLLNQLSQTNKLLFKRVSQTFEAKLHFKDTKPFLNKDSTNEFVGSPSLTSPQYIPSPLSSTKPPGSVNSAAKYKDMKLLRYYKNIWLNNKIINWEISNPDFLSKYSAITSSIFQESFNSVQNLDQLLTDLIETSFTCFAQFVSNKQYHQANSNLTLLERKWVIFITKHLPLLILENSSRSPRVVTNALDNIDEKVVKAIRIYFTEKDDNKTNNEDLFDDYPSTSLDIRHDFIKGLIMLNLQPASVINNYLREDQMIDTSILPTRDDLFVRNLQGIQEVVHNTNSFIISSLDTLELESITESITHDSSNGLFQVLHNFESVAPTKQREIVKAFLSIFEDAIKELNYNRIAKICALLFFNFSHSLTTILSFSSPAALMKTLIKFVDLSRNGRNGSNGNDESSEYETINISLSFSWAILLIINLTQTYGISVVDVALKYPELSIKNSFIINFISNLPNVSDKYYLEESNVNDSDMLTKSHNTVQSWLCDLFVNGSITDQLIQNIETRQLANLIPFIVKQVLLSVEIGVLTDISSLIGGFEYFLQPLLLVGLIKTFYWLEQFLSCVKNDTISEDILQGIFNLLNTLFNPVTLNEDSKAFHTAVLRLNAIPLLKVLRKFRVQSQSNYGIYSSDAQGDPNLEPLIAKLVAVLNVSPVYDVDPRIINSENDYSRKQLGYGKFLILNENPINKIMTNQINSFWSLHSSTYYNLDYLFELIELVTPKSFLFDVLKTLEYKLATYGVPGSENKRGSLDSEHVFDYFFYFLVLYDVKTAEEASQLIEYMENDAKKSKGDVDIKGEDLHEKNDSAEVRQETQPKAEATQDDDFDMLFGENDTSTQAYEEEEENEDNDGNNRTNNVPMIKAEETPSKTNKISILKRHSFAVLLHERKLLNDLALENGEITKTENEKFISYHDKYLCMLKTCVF

T4: TFIIF (S. cerevisiae, UniProt P41895 1-735; P41896 1-400; P35189 1-244)
T4 sequence (looked up) 1: T1 sequence (looked up)
T4 sequence (looked up) 2: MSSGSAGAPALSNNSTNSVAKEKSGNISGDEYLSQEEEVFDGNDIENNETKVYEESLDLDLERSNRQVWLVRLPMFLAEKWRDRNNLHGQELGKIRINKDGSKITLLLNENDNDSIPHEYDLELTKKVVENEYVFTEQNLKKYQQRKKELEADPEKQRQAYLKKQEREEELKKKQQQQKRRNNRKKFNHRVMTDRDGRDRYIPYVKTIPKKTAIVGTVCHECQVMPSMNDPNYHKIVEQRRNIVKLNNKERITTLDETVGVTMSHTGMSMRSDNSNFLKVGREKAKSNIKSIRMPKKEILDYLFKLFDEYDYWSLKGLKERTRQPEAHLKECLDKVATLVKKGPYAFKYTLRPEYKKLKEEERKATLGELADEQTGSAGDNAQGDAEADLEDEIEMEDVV
T4 sequence (looked up) 3: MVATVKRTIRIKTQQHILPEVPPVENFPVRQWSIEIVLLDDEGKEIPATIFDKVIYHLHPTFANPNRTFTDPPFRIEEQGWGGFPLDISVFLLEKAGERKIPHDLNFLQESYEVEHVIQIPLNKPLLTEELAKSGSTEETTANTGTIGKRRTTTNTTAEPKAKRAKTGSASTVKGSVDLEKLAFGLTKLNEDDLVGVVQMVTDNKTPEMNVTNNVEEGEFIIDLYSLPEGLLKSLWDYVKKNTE

B1: Rpb9 (natural protein, S. cerevisiae, UniProt P27999 1-122, looked up)
chain: MTTFRFCRDCNNMLYPREDKENNRLLFECRTCSYVEEAGSPLVYRHELITNIGETAGVVQDIGSDPTLPRSDRECPKCHSRENVFFQSQQRRKDTSMVLFFVCLSCSHIFTSDQKNKRTQFS
B2: Tfg3 (natural protein, S. cerevisiae, UniProt P35189 1-244, looked up)
chain: T4 sequence (looked up) 3
B3: Tfb3 (natural protein, S. cerevisiae, UniProt Q03290 1-321, looked up)
chain: MLMDEYEENKDMCPICKTDRYLSPDVKFLVNPECYHRICESCVDRIFSLGPAQCPYKGCDKILRKNKFKTQIFDDVEVEKEVDIRKRVFNVFNKTIDDFNGDLVEYNKYLEEVEDIIYKLDHGIDVAKTEEKLRTYEELNKQLIMNNLERSRTEIESFEQRQKFEKEMKLKKRLLERQIEEEERMNKEWTKKEIVNRLSTTTQDINETIEGVKNTVKLKKSSARRKLEELNRVLKNNPYFNSNVNVQNSRLKDAVPFTPFNGDREAHPRFTLKGSVYNDPFIKDLEHRKEFIASGFNTNYAYERVLTEAFMGLGCVISEEL
B4: Med1 (natural protein, S. cerevisiae, UniProt Q12321 1-566, looked up)
chain: MVEGDSYVETLDSMIELFKDYKPGSITLENITRLCQTLGLESFTEELSNELSRLSTASKIIVIDVDYNKKQDRIQDVKLVLASNFDNFDYFNQRDGEHEKSNILLNSLTKYPDLKAFHNNLKFLYLLDAYSHIESDSTSHNNGSSDKSLDSSNASFNNQGKLDLFKYFTELSHYIRQCFQDNCCDFKVRTNLNDKFGIYILTQGINGKEVPLAKIYLEENKSDSQYRFYEYIYSQETKSWINESAENFSNGISLVMEIVANAKESNYTDLIWFPEDFISPELIIDKVTCSSNSSSSPPIIDLFSNNNYNSRIQLMNDFTTKLINIKKFDISNDNLDLISEILKWVQWSRIVLQNVFKLVSTPSSNSNSSELEPDYQAPFSTSTKDKNSSTSNTEPIPRSNRHGSVVEASRRRRSSTNKSKRPSITEAMMLKEEGLQQFNLHEILSEPAIEEENGDSIKEHSTTMDGANDLGFTASVSNQENAGTDIVMEDHGVLQGTSQNYGTATADDADIEMKDVSSKPSKPESSVLQLIVSEDHIILDTISECNLYDDVKCWSKFIEKFQDIVS
B5: TFIIE (complex, S. cerevisiae)
chain 1: MDRPIDDIVKNLLKFVVRGFYGGSFVLVLDAILFHSVLAEDDLKQLLSINKTELGPLIARLRSDRLISIHKQREYPPNSKSVERVYYYVKYPHAIDAIKWKVHQVVQRLKDDLDKNSEPNGYMCPICLTKYTQLEAVQLLNFDRTEFLCSLCDEPLVEDDSGKKNKEKQDKLNRLMDQIQPIIDSLKKIDDSRIEENTFEIALARLIPPQNQSHAAYTYNPKKGSTMFRPGDSAPLPNLMGTALGNDSSRRAGANSQATLHINITTASDEVAQRELQERQAEEKRKQNAVPEWHKQSTIGKTALGRLDNEEEFDPVVTASAMDSINPDNEPAQETSYQNNRTLTEQEMEERENEKTLNDYYAALAKKQAKLNKEEEEEEEEEEDEEEEEEEEMEDVMDDNDETARENALEDEFEDVTDTAGTAKTESNTSNDVKQESINDKTEDAVNATATASGPSANAKPNDGDDDDDDDDDEMDIEFEDV
chain 2: MSKNRDPLLANLNAFKSKVKSAPVIAPAKVGQKKTNDTVITIDGNTRKRTASERAQENTLNSAKNPVLVDIKKEAGSNSSNAISLDDDDDDEDFGSSPSKKVRPGSIAAAALQANQTDISKSHDSSKLLWATEYIQKKGKPVLVNELLDYLSMKKDDKVIELLKKLDRIEFDPKKGTFKYLSTYDVHSPSELLKLLRSQVTFKGISCKDLKDGWPQCDETINQLEEDSKILVLRTKKDKTPRYVWYNSGGNLKCIDEEFVKMWENVQLPQFAELPRKLQDLGLKPASVDPATIKRQTKRVEVKKKRQRKGKITNTHMTGILKDYSHRV

In the assay “Tfg3” the target is B2. Put plainly: cross-linking + cryo-EM structure.
A further assay concerns the target T1, Tfg1. Put plainly: cross-linking + cryo-EM structure.
The target of another assay is T2, Rad3. Put plainly: cross-linking.
Another assay concerns the target T3, Med5. Put plainly: cross-linking.
In a further assay the target is T4, TFIIF. Put plainly: cross-linking.

Take B1: the binding result with Tfg3 is listed as “binds”.

Regarding B2, the binding result with Tfg1 is recorded as “binds”.

B3: the binding result with Rad3 is on record as “binds”.

B4: in the assay with Med5, the binding result is reported as “binds”.

In the case of B5, the binding result with TFIIF is “binds”.
